# Values joined by “and” are separate entries in the source; they are usually repeats but may differ in a detail not shown here. Equal entries are not always repeated. No end group written: not given here.
# Legend:
# [1] = biological target: T1, P4 coated fluorescent beads (Streptococcus pneumoniae serotype 4, UniProt P0A4G2, D258K/D259R); test: Rabbit immunization with MAP of P4: serum inhibition of adherence of P4 coated fluorescent beads to Detroit 562 cells (anti P4 activity); type: in vivo
# T1 sequence (P0A4G2 251-278 D258K/D259R): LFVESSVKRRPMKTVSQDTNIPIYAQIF
# Pneumococci (Pnc) = test: Rabbit immunization with MAP of P4: serum inhibition of adherence of Pneumococci to Detroit 562 cells (anti Pneumococcal activity); type: in vivo, Streptococcus pneumoniae
# Text: The MAPs consist of two arms, each consisting of SEQ ID NO:1 linked via lys or nle-lys to a resin.
# Assessment of Serum Samples: • 1) Inhibition of adherence of P4 coated fluorescent beads to Detroit 562 cells (in vitro; tissue culture) to detect the presence of anti P4 antibodies in serum. • 2) Inhibition of adherence of PsaA coated fluorescent beads to Detroit 562 cells (in vitro; tissue culture) to detect the presence of anti PsaA antibodies in the serum. • 3) Inhibition of adherence of Pneumococci (Pnc) to Detroit 562 cells (in vitro; tissue culture) to detect the presence of anti Pnc antibodies in serum. Immunization with P4E—Analyses of Rabbit Sera for Anti P4 and Anti Pneumococcal (Pnc) Antibody: Animal 465
# [2] = rabbit serum 1:10, Bleed # 1 (Day 28)
# [3] = rabbit serum 1:10, Bleed # 2 (Day 42)
# [4] = rabbit serum 1:100, Bleed # 1 (Day 28)
# [5] = rabbit serum 1:1000, Bleed # 1 (Day 28)
# [6] = rabbit serum 1:1000, Bleed # 2 (Day 42)
# [7] = rabbit serum 1:8000, Bleed # 1 (Day 28)
# [8] = rabbit serum 1:8000, Bleed # 2 (Day 42)
# [9] = rabbit serum 1:16000, Bleed # 1 (Day 28)
# [10] = rabbit serum 1:16000, Bleed # 2 (Day 42)
# [11] = rabbit serum 1:32000, Bleed # 1 (Day 28)
# [12] = rabbit serum 1:32000, Bleed # 2 (Day 42)
# [13] = rabbit serum 1:64000, Bleed # 1 (Day 28)
# [14] = rabbit serum 1:64000, Bleed # 2 (Day 42)
# [15] = rabbit serum 1:128000, Bleed # 1 (Day 28)
# [16] = rabbit serum 1:128000, Bleed # 2 (Day 42)
# [17] = rabbit serum 1:256000, Bleed # 1 (Day 28)
# [18] = rabbit serum 1:256000, Bleed # 2 (Day 42)
# [19] = rabbit serum 1:512000, Bleed # 1 (Day 28)
# [20] = rabbit serum 1:512000, Bleed # 2 (Day 42)
Substance,"Anti P4 activity, % inhibition of adherence (% IA) [1, 2]","Anti P4 activity, % inhibition of adherence (% IA) [1, 3]","Anti P4 activity, % inhibition of adherence (% IA) [1, 4]","Anti P4 activity, % inhibition of adherence (% IA) [1, 5]","Anti P4 activity, % inhibition of adherence (% IA) [1, 6]","Anti P4 activity, % inhibition of adherence (% IA) [1, 7]","Anti P4 activity, % inhibition of adherence (% IA) [1, 8]","Anti P4 activity, % inhibition of adherence (% IA) [1, 9]","Anti P4 activity, % inhibition of adherence (% IA) [1, 10]","Anti P4 activity, % inhibition of adherence (% IA) [1, 12]","Anti P4 activity, % inhibition of adherence (% IA) [1, 13]","Anti P4 activity, % inhibition of adherence (% IA) [1, 14]","Anti P4 activity, % inhibition of adherence (% IA) [1, 15]","Anti P4 activity, % inhibition of adherence (% IA) [1, 16]","Anti P4 activity, % inhibition of adherence (% IA) [1, 17]","Anti P4 activity, % inhibition of adherence (% IA) [1, 18]","Anti P4 activity, % inhibition of adherence (% IA) [1, 19]","Anti P4 activity, % inhibition of adherence (% IA) [1, 20]","Anti Pneumococcal activity, % inhibition of adherence (% IA) (Pneumococci (Pnc); [5])","Anti Pneumococcal activity, % inhibition of adherence (% IA) (Pneumococci (Pnc); [7])",also measured
"P4E2: Multi Antigenic Peptide (MAP) of P4: two arms, each SEQ ID NO:1, linked via lys or nle-lys to a resin (chain 1 LFVESSVKRRPMKTVSQDTNIPIYAQIF; chain 2 LFVESSVKRRPMKTVSQDTNIPIYAQIF; not fully specified; also: MAP: two identical arms on a Lys or Nle-Lys core)",50% and 56%,74% and 75%,0%,0%,4% and 1%,0%,1% and 2%,0%,0%,0%,0%,2% and 4%,0%,4% and 0%,0%,4% and 5%,0%,0%,22% and 23%,19% and 21%,"Anti P4 activity, % inhibition of adherence (% IA) ([1]; rabbit serum 1:100, Bleed # 2 (Day 42)): 0% and 3%; Anti P4 activity, % inhibition of adherence (% IA) [1, 11]: 0%; Anti Pneumococcal activity, % inhibition of adherence (% IA) (Pneumococci (Pnc); [6]): 33% and 20%; Anti Pneumococcal activity, % inhibition of adherence (% IA) (Pneumococci (Pnc); [8]): 22% and 16%; Anti Pneumococcal activity, % inhibition of adherence (% IA) (Pneumococci (Pnc); [10]): 18% and 12%; Anti Pneumococcal activity, % inhibition of adherence (% IA) (Pneumococci (Pnc); [11]): 0%"
"P4E: Multi Antigenic Peptide (MAP) of P4: two arms, each SEQ ID NO:1, linked via lys or nle-lys to a resin (chain 1 LFVESSVKRRPMKTVSQDTNIPIYAQIF; chain 2 LFVESSVKRRPMKTVSQDTNIPIYAQIF; also: MAP: two P4 arms on a Lys or Nle-Lys core)",39% and 46%,43% and 48%,32% and 29%,33% and 41%,9% and 12%,6% and 9%,5% and 4%,12% and 15%,7% and 1%,9% and 5%,22% and 21%,6% and 3%,10% and 15%,5% and 9%,5% and 7%,0% and 3%,5% and 7%,6% and 3%,24% and 38%,23% and 34%,"Anti Pneumococcal activity, % inhibition of adherence (% IA) (Pneumococci (Pnc); [8]): 13% and 21%; Anti Pneumococcal activity, % inhibition of adherence (% IA) (Pneumococci (Pnc); [9]): 25% and 27%; Anti Pneumococcal activity, % inhibition of adherence (% IA) (Pneumococci (Pnc); [12]): 14% and 16%"

# Reference: patent US7919104B2, “Functional epitopes of Streptococcus pneumoniae PsaA antigen and uses thereof” (priority 2005, dated 2011)
